Source: article PMC8156982, “DNA Aptamers against Vaccinia-Related Kinase (VRK) 1 Block Proliferation in MCF7 Breast Cancer Cells”

Legend:
[1] = target: T1, VRK1 (vaccinia-related kinase 1), recombinant (UniProt Q99986 1-396); assay: ELONA; 1 mM Mg2+; 10 mM sodium phosphate, 0.15 M NaCl, pH 7.5, 1 mM MgCl2, 0.2% BSA; 37 C, 1 h; aptamers denatured at 95 C 10 min then ice 10 min; VRK1 coated on plate (20 or 200 ng/well); settings: protein: recombinant, tags: 6xHis, label: digoxigenin (5' when made with primer F5)
T1 sequence: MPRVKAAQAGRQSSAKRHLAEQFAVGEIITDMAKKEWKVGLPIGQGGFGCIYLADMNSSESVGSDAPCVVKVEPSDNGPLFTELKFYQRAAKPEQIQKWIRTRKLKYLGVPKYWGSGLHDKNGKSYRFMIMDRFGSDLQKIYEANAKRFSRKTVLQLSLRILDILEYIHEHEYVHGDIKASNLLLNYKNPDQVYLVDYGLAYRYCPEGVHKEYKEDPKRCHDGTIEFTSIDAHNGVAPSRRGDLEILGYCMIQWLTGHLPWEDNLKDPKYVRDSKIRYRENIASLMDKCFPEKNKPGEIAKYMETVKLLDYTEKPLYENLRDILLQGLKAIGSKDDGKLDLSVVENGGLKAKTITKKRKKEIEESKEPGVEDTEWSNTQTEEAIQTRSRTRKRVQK

[2] = target: T1, VRK1 (vaccinia-related kinase 1), …; assay: ELONA; 80 nM; at least twice control; 10 mM sodium phosphate, 0.15 M NaCl, pH 7.5, 1 mM MgCl2, 0.2% BSA; 37 C, 1 h; aptamers denatured at 95 C 10 min then ice 10 min; VRK1 coated on plate (20 or 200 ng/well); settings: protein: recombinant; tags: 6xHis; label: 5' digoxigenin on both chains; PCR duplex denatured at 95 C and cooled on ice
[3] = target: T1, VRK1 (vaccinia-related kinase 1), …; assay: ELONA; 40 nM PCR-labeled chain; 10 mM sodium phosphate, 0.15 M NaCl, pH 7.5, 1 mM MgCl2, 0.2% BSA; 37 C, 1 h; aptamers denatured at 95 C 10 min then ice 10 min; VRK1 coated on plate (20 or 200 ng/well); settings: protein: recombinant; tags: 6xHis; label: digoxigenin (5' when made with primer R5); no G-quadruplex (predicted)
[4] = possible two G-quadruplexes (predicted)

B1: apVRKF8 (V#F8) (ssDNA)
DNA: ACGCTCGGATGCCACTACAGGGAGGGGGGGGGAAAGTAAGCGGGGGGTCGGCGGCCTCATGGACGTGCTGGTGA
For B1, the Kd [1, 4] was 45.8 ± 5.01 nM.

B2: apVRKF28 (V#F28) (ssDNA)
DNA: ACGCTCGGATGCCACTACAGGGACGGCGGATGGGGGCGGTGGGTGGGTTTCTTGCCTCATGGACGTGCTGGTGA
Binder B2 has a Kd ([1]; possible one G-quadruplex (predicted)) of 60.1 ± 7.05 nM.

B3: apVRK8 (F+R chains) (mixed)
DNA 1: B1 DNA
DNA 2: TCACCAGCACGTCCATGAGGCCGCCGACCCCCCGCTTACTTTCCCCCCCCCTCCCTGTAGTGGCATCCGAGCGT
With B3 the binding signal [2] was > 2 fold over control.

B4: apVRK28 (F+R chains) (mixed)
DNA 1: B2 DNA
DNA 2: TCACCAGCACGTCCATGAGGCAAGAAACCCACCCACCGCCCCCATCCGCCGTCCCTGTAGTGGCATCCGAGCGT
With B4 the binding signal [2] was > 2 fold over control.

B5: apVRK33 (F+R chains) (mixed)
DNA 1: ACGCTCGGATGCCACTACAGGTTGCGAGGTGGGGGGTGGGTAGGGTGGGAAGTGCCCTCATGGACGTGCTGGTGA
DNA 2: TCACCAGCACGTCCATGAGGGCACTTCCCACCCTACCCACCCCCCACCTCGCAACCTGTAGTGGCATCCGAGCGT
In the case of B5, the binding signal [2] is reported as > 2 fold over control.

B6: apVRKF33 (V#F33) (ssDNA)
DNA: B5 DNA 1
Work on B6 yielded a Kd [1, 4] of 129 ± 55.6 nM.

B7: apVRKR28 (V#R28) (ssDNA)
DNA: B4 DNA 2
B7: binds [3].
